These results are taken from patent US11572572B2, “A138T mutation-containing plant EPSPS mutant, and encoding gene and application thereof” (GEVOTO LLC, priority 2017, dated 2023).

The subject of the experiment is transgenic rice seedlings. Put plainly: Glyphosate resistance of EPSPS mutants in transgenic rice sprayed with glyphosate (Example 8). In kind it is in vivo, rice (Nipponbare). An excerpt: The glyphosate resistance of the EPSPS mutants of the above examples in transgenic rice was detected by the following method.
Plasmids of monoclonal resistant strain comprising pADV5-EPSPS of Examples 1-4 (containing the EPSPS mutant genes) were extracted in accordance with a conventional method. They were subjected to double enzymatic digestion with Pacl and BstEII to recover small fragments, and then the small fragments were ligated, using T4 DNA ligase, to a pGVP1 vector subjected to double enzymatic digestion in the same manner, to obtain a pGVP1-EPSPS vector having a structure as shown in FIG. 8.
The pGVP1-EPSPS vector was transformed into EHA105 (Agrobacterium tumefaciens) competent cells, and single clones were picked out for colony PCR detection to obtain positive strains. Then, the positive strains were inoculated into and propagated in 1 mL of a YEP medium containing 50 μg·mL^−1 kanamycin and 50 μg·mL^−1 rifampicin, and stored at −80° C. or used in subsequent experiments.
400 ul of a strain containing the target gene vector stored at −80° C. was added to a culture dish with a solid medium containing YEP+50 μg/mL rifampicin+50 μg/mL kanamycin and cultured in the dark at 28° C. for 24 hours, and then the bacterium was added to an infection medium and adjusted to OD=0.2 as an infection solution.
Disinfection and Pre-culture: seeds of mature rice (Nipponbare) were manually dehulled. Full seeds with no bacterial plaques were selected and disinfected in accordance with the following steps: the seeds were placed in a 50 ml sterile centrifuge tube and disinfected with the added 70% ethanol in water for 30 seconds, ethanol solution was poured out, and the seeds were washed once with sterile water; 10 to 20 ml of 2.6% sodium hypochlorite solution was added to soak and disinfect the seeds for 20 minutes. The sodium hypochlorite solution was poured out, and the seeds were soaked and washed with sterile water for 6 or 7 times, for 3 minutes each time.
Induction and Subculture: the seeds were placed on and blotted with sterile filter paper, and the mature embryos were placed in an induction medium, with 12 embryos per dish. After the operation was completed, the culture dishes were sealed with parafilm and underwent culturing in the dark at 30° C. for 21 to 28 days. Callus tissue was transferred to a fresh medium and continued to be cultured for about 7 to 14 days. Spherical callus tissue with a dimension of 1 to 2 mm was taken as an infection receptor.
The callus tissue was placed into a centrifuge tube or culture cup, infected in the prepared Agrobacterium suspension added thereto for 10 minutes, and shaken several times during the period; the bacterial solution was poured out, the callus tissue was taken out and placed on sterile filter paper for absorbing the bacterial solution from its surface (for about 30 minutes); the callus tissue was placed on sterile filter paper in culture dishes and cultured in the dark at 25° C. for 2 or 3 days.
Recovery Culture: the co-cultured callus tissue was inoculated on a recovery medium and cultured in the dark at 30° C. for 5 to 7 days.
Primary Screening: the callus was transferred to screening medium 1 (51) and cultured in the dark at 30° C. for 14 days.
Secondary Screening: the callus was then transferred to screening medium 2 (S2) and cultured in the dark at 30° C. for 14 days.
Primary Differentiation: the screened resistant callus tissue was transferred to a differentiation medium and cultured for about 21 days at 30° C. under exposure to light for 19 hours.
Secondary Differentiation: new young shoots were selected and moved to a fresh differentiation medium and continued to be cultured for about 21 days.
When the new seedlings grew to about 2 cm, they were moved to a rooting medium and cultured for 3 to 4 weeks at 30° C. under exposure to light (for 16/8 h). […]

The mark [1] stands for this setting: 1X dose glyphosate (1,060 g/ha), day 10 after spraying.
Setting [2] is: 2X dose glyphosate (2,120 g/ha) on survivors of 1X, after another 10 days.
The mark [3] stands for this setting: 5X dose glyphosate (5,300 g/ha) on survivors of 2X, after additional 10 days.
[4] abbreviates: 20X dose glyphosate (21,200 g/ha) on survivors of 5X, after further 10 days.

Substitutions are numbered along the chain they refer to.

B1: R5: Oryza sativa EPSPS mutant containing G111(96)A, P116(101)S, and A155(138)T (SEQ ID NO: 9), encoding gene SEQ ID NO: 19 (protein)
chain: MASNAAAAAAKAEEIVLQPIREISGAVQLPGSKSLSNRILLLSALSEGTTVVDNLLNSEDVHYMLEALKALGLSVEADKVAKRAVVVGCGGKFPVEKDAKEEVQLFLGNAATAMRSLTAAVTAAGGNATYVLDGVPRMRERPIGDLVVGLKQLGTDVDCFLGTECPPVRVKGIGGLPGGKVKLSGSISSQYLSALLMAAPLALGDVEIEIIDKLISIPYVEMTLRLMERFGVKAEHSDSWDRFYIKGGQKYKSPGNAYVEGDASSASYFLAGAAITGGTVTVQGCGTTSLQGDVKFAEVLEMMGAKVTWTDTSVTVTGPPREPYGKKHLKAVDVNMNKMPDVAMTLAVVALFADGPTAIRDVASWRVKETERMVAIRTELTKLGASVEEGPDYCIITPPEKLNITAIDTYDDHRMAMAFSLAACADVPVTIRDPGCTRKTFPNYFDVLSTFVRN
modifications: Oryza sativa EPSPS mutant with mutations G111(96)A, P116(101)S, and A155(138)T
As for B1, under setting [1], the “% ++&+++ (percentage of moderately and highly glyphosate resistant plants in total plants observed)” value amounted to 92.0%; the “plant number with resistance + (low glyphosate resistant)” value is on record as 0; the “plant number with resistance ++ (moderately glyphosate resistant)” value was 0; the “plant number with resistance +++ (highly glyphosate resistant)” value (from here on “plant number with resistance +++”) was determined as 23. Moreover, under setting [2], the “% ++&+++ (percentage of moderately and highly glyphosate resistant plants in total plants observed)” value is recorded as 84.0%; the “plant number with resistance + (low glyphosate resistant)” value came to 0; the “plant number with resistance ++ (moderately glyphosate resistant)” value turned out to be 1; the “plant number with resistance +++” value amounted to 20. The “plant number with resistance − (non-glyphosate resistant, withered or dead)” value under setting [2] worked out at 4. Besides, under setting [3], the “% ++&+++ (percentage of moderately and highly glyphosate resistant plants in total plants observed)” value is on record as 76.0%; the “plant number with resistance + (low glyphosate resistant)” value came to 2; the “plant number with resistance ++ (moderately glyphosate resistant)” value came to 2; the “plant number with resistance +++” value is given as 17. The “plant number with resistance − (non-glyphosate resistant, withered or dead)” value under setting [3] turned out to be 4. Further, under setting [4], the “plant number with resistance + (low glyphosate resistant)” value was 1; the “plant number with resistance ++ (moderately glyphosate resistant)” value was determined as 6; the “plant number with resistance +++” value was 13; the “plant number with resistance − (non-glyphosate resistant, withered or dead)” value was 5. The “level of glyphosate resistance of transformed rice seedlings compared with the mutant lacking the A138T mutation (R4 for R5, T1 for T2) (in words)” value (each of 1×, 2×, 5×, and 20× glyphosate doses) is listed as “higher levels of glyphosate resistance”.

B2: R4: Oryza sativa EPSPS mutant containing G111(96)A and P116(101)S (SEQ ID NO: 8), encoding gene SEQ ID NO: 18 (protein)
chain: B1 chain with T155A
modifications: Oryza sativa EPSPS mutant with mutations G111(96)A and P116(101)S
Consider B2, for which, under setting [1], the “% ++&+++ (percentage of moderately and highly glyphosate resistant plants in total plants observed)” value stood at 88.5%; the “plant number with resistance + (low glyphosate resistant)” value was 0; the “plant number with resistance ++ (moderately glyphosate resistant)” value is given as 0; the “plant number with resistance +++” value stood at 23. Further, under setting [2], the “% ++&+++ (percentage of moderately and highly glyphosate resistant plants in total plants observed)” value came to 80.8%; the “plant number with resistance + (low glyphosate resistant)” value is 2; the “plant number with resistance ++ (moderately glyphosate resistant)” value amounted to 1; the “plant number with resistance +++” value is 20. Moreover, the “plant number with resistance − (non-glyphosate resistant, withered or dead)” value under setting [2] is given as 3. Besides, under setting [3], the “% ++&+++ (percentage of moderately and highly glyphosate resistant plants in total plants observed)” value was 69.2%; the “plant number with resistance + (low glyphosate resistant)” value came out at 3; the “plant number with resistance ++ (moderately glyphosate resistant)” value was 1; the “plant number with resistance +++” value is listed as 17. The “plant number with resistance − (non-glyphosate resistant, withered or dead)” value under setting [3] is on record as 5. For the same molecule, under setting [4], the “% ++&+++ (percentage of moderately and highly glyphosate resistant plants in total plants observed)” value is 50.0%; the “plant number with resistance + (low glyphosate resistant)” value stood at 3; the “plant number with resistance ++ (moderately glyphosate resistant)” value is 10; the “plant number with resistance +++” value is recorded as 3. Moreover, the “plant number with resistance − (non-glyphosate resistant, withered or dead)” value under setting [4] is recorded as 10.

B3: T1: Triticum aestivum EPSPS mutant containing G113(96)A and P118(101)S (SEQ ID NO: 4), gene SEQ ID NO: 21; Control Group 2 of Example 7 (protein)
chain: MATSVAAPAAPAGAEEVVLQPIREISGAVQLPGSKSLSNRILLLSALSEGTTVVDNLLNSEDVHYMLEALEALGLSVEADKVAKRAVVVGCGGRFPVEKDAKEEVKLFLGNAATAMRSLTAAVVAAGGNATYVLDGVPRMRERPIGDLVVGLQQLGADVDCFLGTNCPPVRINGKGGLPGGKVKLSGSISSQYLSSLLMAAPLALEDVEIEIIDKLISVPYVEMTLKLMEHFGVTAEHSDSWDRFYIKGGQKYKSPGNAYVEGDASSASYFLAGAAITGGTVTVEGCGTTSLQGDVKFAEVLEMMGAKVTWTDTSVTVTGPPRQPFGRKHLKAVDVNMNKMPDVAMTLAVVALFADGPTAIRDVASWRVKETERMVAIRTELTKLGATVEEGPDYCIITPPEKLNITAIDTYDDHRMAMAFSLAACAEVPVTIRDPGCTRKTFPNYFDVLSTFVKN
modifications: Triticum aestivum EPSPS mutant with mutations G113(96)A and P118(101)S
With B3, under setting [1], the “% ++&+++ (percentage of moderately and highly glyphosate resistant plants in total plants observed)” value is on record as 70.0%; the “plant number with resistance + (low glyphosate resistant)” value is on record as 1; the “plant number with resistance ++ (moderately glyphosate resistant)” value came out at 7; the “plant number with resistance +++” value is recorded as 14. Further, under setting [2], the “% ++&+++ (percentage of moderately and highly glyphosate resistant plants in total plants observed)” value is 36.7%; the “plant number with resistance + (low glyphosate resistant)” value is reported as 4; the “plant number with resistance ++ (moderately glyphosate resistant)” value was 1; the “plant number with resistance +++” value is reported as 10. Besides, the “plant number with resistance − (non-glyphosate resistant, withered or dead)” value under setting [2] was found to be 15. Under setting [3], the “% ++&+++ (percentage of moderately and highly glyphosate resistant plants in total plants observed)” value came out at 36.7%; the “plant number with resistance + (low glyphosate resistant)” value came to 4; the “plant number with resistance ++ (moderately glyphosate resistant)” value stood at 7; the “plant number with resistance +++” value came to 4. Further, under setting [3], the “plant number with resistance − (non-glyphosate resistant, withered or dead)” value amounted to 15. Under setting [4], the “% ++&+++ (percentage of moderately and highly glyphosate resistant plants in total plants observed)” value was 13.3%; the “plant number with resistance + (low glyphosate resistant)” value is on record as 7; the “plant number with resistance ++ (moderately glyphosate resistant)” value was 4; the “plant number with resistance +++” value is given as 0. Besides, under setting [4], the “plant number with resistance − (non-glyphosate resistant, withered or dead)” value was determined as 19.
